Legend:
Test in all cases: flow cytometry on cells; Adh adhesion to 293T cells displaying the candidate protein from pDisplay; adhesion rate compared with the control group
[1] = molecular target: CARD displayed on the surface of 293T cells (pDisplay) (pig (protein identified from porcine alveolar macrophages; source of the cDNA not stated))
[2] = molecular target: OR5M11 displayed on the surface of 293T cells (pDisplay) (pig (protein identified from porcine alveolar macrophages; source of the cDNA not stated))
[3] = molecular target: RAB14 displayed on the surface of 293T cells (pDisplay) (pig (protein identified from porcine alveolar macrophages; source of the cDNA not stated)) (UniProt Q52NJ6)
[4] = molecular target: RAB1B displayed on the surface of 293T cells (pDisplay) (pig (protein identified from porcine alveolar macrophages; source of the cDNA not stated)) (UniProt Q06AU7)

Measured: fold increase of the adhesion rate over the control group

Sequence of UniProt Q06AU7 (Q06AU7 whole entry): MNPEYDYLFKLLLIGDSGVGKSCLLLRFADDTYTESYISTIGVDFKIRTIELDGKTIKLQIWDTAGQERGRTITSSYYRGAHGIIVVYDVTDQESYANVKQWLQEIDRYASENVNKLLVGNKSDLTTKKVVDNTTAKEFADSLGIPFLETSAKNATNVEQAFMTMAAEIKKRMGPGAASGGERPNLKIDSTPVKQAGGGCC
Sequence of UniProt Q52NJ6 (Q52NJ6 whole entry): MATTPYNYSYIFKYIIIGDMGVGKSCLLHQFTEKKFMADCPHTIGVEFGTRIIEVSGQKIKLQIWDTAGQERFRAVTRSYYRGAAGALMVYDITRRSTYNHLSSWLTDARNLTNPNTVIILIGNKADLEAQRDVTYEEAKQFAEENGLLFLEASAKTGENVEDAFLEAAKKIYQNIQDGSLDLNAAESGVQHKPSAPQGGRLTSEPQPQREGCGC

Adh, the 68-612 aa head domain of the trimeric autotransporter adhesin Apa1 of Actinobacillus pleuropneumoniae (domain or fragment)
> 3 fold: all assays above

Reference: PMC4820727
